The values that follow come from the domain aggregation screens of Martell et al. (2025).

The data set is described as follows: soluble fraction after stress (log2 fold change); higher = more stays soluble; pooled small domains, quantitative proteomics. Conditions: stress: 50 degC. The procedure, abridged: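 The stress applied to every library was 50°C. These custom libraries of small protein domains were pooled and measured at high throughput with quantitative proteomics as the read-out. Aggregation propensity is expressed as the base-two logarithm of the fold change in how much of each protein remains soluble. The higher the value, the more of that protein stays in solution.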
In the case of “HMTIENTDTFLETLWEQVQRASVDENGIITSRVLIWDEGTKLDEILSWFDKRHSLGALYLQFG”, the “soluble fraction (log2)” value was -2.47. In the case of “HMTIFGWQTDETGKWYRNADGTFFEAGWKEIDGAKYYFDENGYVKTGWLELDGKDYYFDEEGRYDSSKVR”, the “soluble fraction (log2)” value was -0.33. Consider “HMTIGLLISKARTNSGLTQAELATRAGTSQAAIARYESDRVSPSVSTLERVLRAAGEELVISSS”, for which the “soluble fraction (log2)” value is -0.0977.

In the case of “HMTINPFSTLAVRELEILHYLLNGHRTKEIATNLGLKMNTVSTIKSNIFEKVKADSFTHLLQLAHVHQIS”, the “soluble fraction (log2)” value is -0.888. For the sequence “HMTIQNSILDEIPNIGASRKRAILEAFGSVHRLRKASPEMISAKVEGIGPEMAQAIHDYLVKHPAT”, the “soluble fraction (log2)” value was found to be 0.19. Turning to “HMTISAQAITPRLEVIKNFVLMEEWDAAQTQLEKLRSFTEIWSLDPLFSAMKKKDGQKISDWITGFIKDNM”, the “soluble fraction (log2)” value is -1.15.

Take “HMTISDEAMQAGRDAFIQALVAMGAEKNADAMASIEKALSADPGNKEYLATRDLIKKSMGMKK”: the “soluble fraction (log2)” value turned out to be 0.44. Under “HMTISGSDLKAQREALNIPLERIAKETRIRLSILQDLEDEEYSELSSSAQTKGFLRLYADYLSSHKQRLG” stands -0.415; under “HMTITDDETHKVLEEGASRMSEGLTFRDLVDLDRLHLTARGVIQKVLNENRIDADVDTIANMAQKLVARVS”, -0.0539; under “HMTKAEVLLDLQQRIISEEFLPGSWLVERDLSSEYGLSRTPIREILNKLVILGLISVQKNRGYQVR”, -1.43. With “HMTKAILTANDVRNGDIVFWTADQRWSTSIDDAAIGYGKDDTDQLADAGKQAEAANTVVGAYLIALR”, the “soluble fraction (log2)” value is -0.276. Then “HMTKASEELYFRLKEELGTGVIVEHKKYGEGVVTQLDDRLVHIMFQDDTLRMMDLKILANAGLLKVK”, with 0.189; and “HMTKDYVVIYEGLAQTEAVEILGKLQEMGVSAKVDHNDSILVLKDEEDQIRMALATEGYPKS”, with -0.0917.

As to “HMTKEEKEKREKYEKLMKKADELVTAKNHKEAVTVLGQAKAYANPQQTKEIEEKIKAQTAELDKG”, the “soluble fraction (log2)” value came out at 0.239.

For “HMTKGVQMFAEQLKRTRQSRHYSQAEIASKLGVTQQAIAKWETGVSTPSPTSISKLSDILGISTDVLLKGA”, the “soluble fraction (log2)” value was determined as 0.0763. For “HMTKIAFPQMLNKYRLQKNLTMEQLAEEVGKTKSTISKWEAGTRSPKIYEIEEIAKYFGVEPQTMMF”, the “soluble fraction (log2)” value was -0.453.

In the case of “HMTKINAPMPGNILDVKVNVGDHVEANQLVLMLEAMKMENEIFTPVAGTVVGVHVKKGDSVNSDDLLISI”, the “soluble fraction (log2)” value was -0.228. Consider “HMTKKEFLDILTESLAGNVPASEIEENIRYYKDYIENGEESEEKALEQLGDPHLIARTIIDSFIA”, for which the “soluble fraction (log2)” value was -0.127. Turning to “HMTKLLSALQADKFAKKLANDTNFGSNFARMGESAMDFTNRLVEELQRDEGKVANYMPYLTKLGF”, the “soluble fraction (log2)” value is 0.312. “HMTKLSPKEKSILHIIGDNAGIKSGQIAKRLDIPSPTVKRILSDLVSQNLIEKFGTGPGTNYSI”: the “soluble fraction (log2)” value stood at 0.0531. For the sequence “HMTKLTTDERSVYLHIQNKPGVSASSIREALGYKKSKLTSILAQLLEVHKIIDTEGTGKSLKYIL”, the “soluble fraction (log2)” value was -0.0662. Regarding “HMTKMTPNRQLVLSVLQSSGKPLSAYELLDRLREQGTQWQPPTAYRALDYLVEQGLAHYLQSIQKYV”, the “soluble fraction (log2)” value is -1.1. Take “HMTKNEFLASFQNELQKRHIPDWEDVVSEYEQHFALKQADGFSEEEIAAKLGAPAELAAQFEA”: the “soluble fraction (log2)” value was -0.0437. Under “HMTKQIILVHVAGKVKKPDVYPLLQGSRVADAIKAAGGAKKGVELNDINLARVLIDGEQVFVGYVPE” stands -1.58; under “HMTKQRSAIMNLLAERNTPLTAEEIGEAIAPSYPKLALSTVYRNLELFTNAGLLEKSFFQDGITRYSLTK”, -0.429; under “HMTKRTEPSILQNFDTEIAELIAKNRGISIMDALRIFLASKTHEMLENDEMKLWYFSPLAVFDMWENE”, 0.088.

Take “HMTKSIDFDFREDGVYIKADKDVTIVDIVTKIDLRRIQSVDLTKIKQMLEIGSLDNWIKIAEPQMEK”: the “soluble fraction (log2)” value came to 0.0472.

With “HMTKSTLQRQKIIADLIESGNISSQNQLKGLLKKNSLLITQATLSRDLSELGAIKKRQKDGLLVYVLPK”, the “soluble fraction (log2)” value was -0.511. Consider “HMTKTKADKIDYAIGDSGTEPPTEDKWTDLAHLPLIKAGQFQWTRRTEYYSDGSTAVSYNIAKSE”, for which the “soluble fraction (log2)” value was 0.0286. As to “HMTKYKEIVDQLRTNIYEGVFPALSKLPEQTALAKRFQTSRMTIQKALNQLKQEGLISTKRGHGTYVNSAT”, the “soluble fraction (log2)” value was -0.298. For the sequence “HMTKYVEGQKYVFEFRDGTITIGTYLRTGEGNIYIKDLSGEDIYIPKIMIAQIHLATDDNVKGDEFWF”, the “soluble fraction (log2)” value is -0.353. Under “HMTLDSLEKLSVNDLEKMLVNMPVGYKTIFLLSVIDEYSHKEIGELLGITPETSRSQLFRAIKWIKTNIF” stands -0.428; under “HMTLGARTLAAIQSLPKVQQAVFTMKHFEGLKYREISQITGTSEGALKASYHIALEKIKAFLREK”, -2.53; under “HMTLGEHILQYRTARGWSQEDLANALEVSRQSVSKWETDASTPELDKIVRLSEIFQVSIDELVTGKA”, 0.108. For the sequence “HMTLGENLQNLRKEAGLSQEQVAQQLFVSRQTVSKWENNLAEPGVENLKALARLYGVTLDRLVGM”, the “soluble fraction (log2)” value was -0.0572. With “HMTLKVQLSEISKMVSLSYIAKKYFNKSQSWLSQRINGNTIHNKPAKFTSEELATLQFALKDIGNILNSTV”, the “soluble fraction (log2)” value was -2.8. As to “HMTLLVPASKEAILGGLAKIDALKVILKPEKDYSKTHAMTIGTKDEVIAKLDSFLSGMDSEKNQVLIQEYM”, the “soluble fraction (log2)” value worked out at 0.107. Regarding “HMTLSDIGHAVRTRRTELGLSQVQLARLSGLSRQTLVGLENGTLNDLGINRVAQLLAVLGLDAP”, the “soluble fraction (log2)” value was -0.827. As to “HMTLSHAINRLRLNANMSQEQFAGLFHVSQQSVQKWESGDSVPELSKLIAIAKHFGISLDALILGN”, the “soluble fraction (log2)” value is -0.614. Take “HMTLTEQQITDNYKELRKIINDTFSGLRLDKLNHMYDDLEDRMVVAPASSVEHYHNSKVGGYVEHILHVI”: the “soluble fraction (log2)” value is -0.187. Turning to “HMTLTIEDGYVNAKLKTTVEGLAEDSTIKVDSIEYTNAGKNDILTVFVEDKPYRVEKYKINIAPEDS”, the “soluble fraction (log2)” value worked out at 0.0185. Consider “HMTLVSALDQKTKDSAYYRGTYLAGKISAGKMTKQEAVADIMKNYDGNTAAMKVAAEKAGVSDLLSQTVL”, for which the “soluble fraction (log2)” value was determined as 0.234.

Consider “HMTMKQVFIETDANVNQKIMLNEKEAHHLFDVLRTSDKETIRVVTNTSQVFLARVQQKPYIYLFDKMTVE”, for which the “soluble fraction (log2)” value is -1.41. Take “HMTMNYFIIENNQQVGPLTLEQLVARNITSDTLVWKEGMEDWQPAWKVDELHTVLDQIRANAEQ”: the “soluble fraction (log2)” value is -0.0599. Turning to “HMTMVVIMNADATQADIEGVISAIEEKGLEAKVMEGAHQKIVGVIGDKTKLAATPLDAMHGVETTVAIS”, the “soluble fraction (log2)” value is -0.0878. For “HMTNATVGQIKKLARASILYGNSNLSGNRYTYKANTTVTILQNISSNVDKIRVNVTGRVAYIDNSNYSSST”, the “soluble fraction (log2)” value was -3.56.

“HMTNEQLSKAKSWVQIAVYAAEKLYGAGNGDQKLVYAEEILRKHGIRLDTATLKAMIDAQIKEMEN”: the “soluble fraction (log2)” value was -0.149. Turning to “HMTNEWRKILSNLNGKYQIVMELFYVDGFSTKEIARMLHITEVNVRSRMVRGRKQLEQILTVR”, the “soluble fraction (log2)” value is -0.15. Under “HMTNPPITTEARNLVVEQLKELNALHPEKARELADSYKKEFNVPKVIGHITEARHGEFLALAISKIDES” stands -0.144; under “HMTNPPTPADTLFNTVRGVLQSILKSPMKDTEVASALNVSKAQARSWLQRLSDEGLIEKRKNPTAYVL”, -0.238. “HMTNTYEVIKNDIIFGVLPPLKKLKLLELKKKYITSVSTLREILSRLSGDGFVVSKEQKGFYVSAV”: the “soluble fraction (log2)” value is -0.00437.

On to “HMTNVNSLIGKKAIVIQDIDNLKSTGQVKIGGEIWSAQSESNDIISKDTEVEIVKIDGVKLIVRLVPV”, for which the “soluble fraction (log2)” value came out at 0.1. Under “HMTNYNTEKIIPEEQAGKRLDVVLANIFPEFSRSRLKNWIIDGFILVDGKVLRPRDFVTGGELVSIDVIV” stands -0.1. As to “HMTPADEAGNDLDIGQTVKILRRVSEGQYEVSYRGTTWQARALNAQAAVEPSFAVIGGKEGNILLVHL”, the “soluble fraction (log2)” value was 0.122. “HMTPDVAEFRERLRQILPGEQIEVRTANDGIVLSGTVSSIARLDAALQLAERYAPSRVSNLMSVG”: the “soluble fraction (log2)” value came out at 0.19. On to “HMTPEPVREALTFQEGRVFALAAKNMTNAEIAQSLSLKLKTVENYMSIIYQKLALKNRYELLVYARKSGV”, for which the “soluble fraction (log2)” value was -0.631. “HMTPESSLHSGLGKILHDALTAKIQLTNFEAKFLSDMQSKYDLNGSFSWLSSKQQTTLEKILAKYGR”: the “soluble fraction (log2)” value was -0.841. For “HMTPFLVRVDISDLNIRTGAGTNYSRTGQYTGKGIFTILEVKSGQGSDAGWGRLKSGAGWISLDYTTR”, the “soluble fraction (log2)” value was -2.82. Regarding “HMTPIELIEKTIELIENERKVQKLQQKELALKADIPFPTYKDFIYKKRASLENILKLFIALRLF”, the “soluble fraction (log2)” value is -0.342.

As for “HMTPKVAVPSFVGWKFEDVERQLGTMGLIRGKVDNHPSEEYSEGRVIWQSVLGEVEKGKVIDFWVSTGPE”, the “soluble fraction (log2)” value is -0.0362.

As for “HMTPNATWQDDAQSLLRDLIQHQPVLIQISAAKRLRDQAEQISRITGGDTVTRDHVEAAGHALGMGVT”, the “soluble fraction (log2)” value stood at 0.0517. As to “HMTPPLSKIRNMTPDQQRSSVIEARKKGYNLLQLEGLAKAQGATPADLLVLRNAWAQSEFDQKR”, the “soluble fraction (log2)” value was determined as 0.149. Then “HMTPQVALNDTETAIYEKMKQEKQMLLGELRAQFDISNKLWDTSLKTLTKNQLLAVSKEDDLLFVKL”, with 0.113; and “HMTPQVTVPDVTGQSFASAKQVLESLGLTVKQQGSTGENDKVIGQNPTSGNADKGATITLTTQDS”, with 0.343. Then “HMTPSTVQVHVAGAVKNPGVYVLLENARNIDAITAAGGATSEADLERINLSEFIRDGQRVYVPYKGDPI”, with 0.269; and “HMTPTITNALEEAEKAVSEVQEGKKEIELTPQGAYIRHLQHAIADRYGISSTSTGRDPKRKVIIY”, with -0.108.

Turning to “HMTPTNILIVEDEKEIRRFVRTALESEGLRVFESETLQRGLIEAGTRKPDLIILDLGLPDGDGLSYIRDLR”, the “soluble fraction (log2)” value was -0.123.

Regarding “HMTPTRQATVSVAALNVREQPSLQGRRLGKLTQGTTLTVVGPPGEWLKIEYKGETGFVYASYTSLG”, the “soluble fraction (log2)” value is -1.59. As to “HMTPTVEAAKEEVLRVLASAAPRGLTRTELEAEVSFRRTKLRDTLVELERIGRIDSVGRRGNATTYRLIG”, the “soluble fraction (log2)” value is -0.615.
